Our source for the VNT: minimum antibody concentration that neutralises C/PHI/3/1994 virus values is paper PMC13216289.

Positions count from the first letter of the chain named.

The experiment concerns the target FMDV C/PHI/3/1994 virus (Foot-and-mouth disease virus C/PHI/3/1994).

B1: Ab17 (antibody, V domains shown)
VH: QVQLRESGPSSLKPSQTLSLTCAVSGFSLSTYAVGWVRQAPGKALEWVGDITSSGDTFYNPALKSRFSITKDNSKNQVSLSVGSVTPEDTATFYCTRLTCGDDCSTAWHNFDAWGQGLLVTVSS
VL: SYELTQPTSVSVALGQTAKITCSGDLLDVQYTQWYQQKPGQGPVRVIYKDSERPSGISDRFSGSSSGKTATLIISGAQTEDEADYYCQSTDSSQYGIFGRGTTLTVL
For the molecule B1, the VNT: minimum antibody concentration that neutralises C/PHI/3/1994 virus was 213 nM.

B2: Ab49 (antibody, V domains shown)
VH: QVQLRESGPSLVKPSQTLSLTCTVSGFSLTNYAVGWVRQAPGKAIQSLSIISTTGDTYYNPALKSRLSITKDNSKSQVSLSVSSVAPEDTATYYCVKFCGNADSAGHGWGCDYGDNENWGQGLLVTVSS
VL: B1 VL with V29E, I73T, T90F, D91Y, Q94T, Y95D, G96P, I97V, R100S
As to B2, the VNT: minimum antibody concentration that neutralises C/PHI/3/1994 virus turned out to be 1150 nM.
